# Legend:
# human serum albumin [1] = biological target: T1, human serum albumin (human, UniProt P02768 25-609); assay: SPR Biacore 8K+ SCK, albumin on chip, pH 7.4
# T1 construct: Immobilised on SPR chips; also added in solution in the FcRn occupancy assays; also called HSA; humanSA
# [2] = biological target: T2, cynomolgus monkey serum albumin (cynomolgus monkey, UniProt A2V9Z4 25-608); assay: SPR Biacore 8K+ SCK, albumin on chip, pH 7.4
# T2 construct: Immobilised on SPR chips; also called cynoSA; cynomolgus albumin
# mouse serum albumin = biological target: T3, mouse serum albumin (mouse, UniProt P07724 25-608); assay: SPR Biacore 8K+ SCK, albumin on chip, pH 7.4
# T3 construct: Immobilised on SPR chips; also called mouseSA; MSA
# human serum albumin [3] = biological target: T1, human serum albumin; assay: SPR Biacore, HSA coated, steady state, pH 5.5
# human serum albumin [4] = biological target: T1, human serum albumin; assay: SPR Biacore, HSA coated, kinetic fit, pH 5.5
# [5] = biological target: T4, neonatal Fc receptor (FcRn), endogenous in U937 cells (human, UniProt P55899 24-365; P61769 21-119); assay: FcRn occupancy, FACS, U937 cells, with albumin
# T4 construct: whole, on cells; Free FcRn was stained intracellularly after fixation and permeabilisation
# Method: Next, FcRn occupancy was tested using a cell-based FcRn occupancy assay in the presence or absence of albumin. […] Cells (HEK FcRn mut or U937) were plated in a 96-well microplate. Cells were incubated with test article for two hours, shaking at 37° C., pH 7.4 in FACS buffer. Plates were then transferred immediately on ice and cells were collected by centrifugation at 4° C. Cells stained for viability in FACS buffer at pH 6 and then fixed/permeabilized in permeabilization buffer at pH 6. […] Cells were analyzed by FACS, ensuring that they are kept on ice until immediately prior to analysis.
# human serum albumin [6] = biological target: T1, human serum albumin; assay: SPR Biacore, HSA coated, kinetic fit, pH 7.4
# human serum albumin [7] = biological target: T1, human serum albumin; assay: SPR Biacore, HSA coated, steady state, pH 7.4
Kd (human serum albumin [1]) [nM],Kd [2] [nM],Kd (mouse serum albumin) [nM],Kd (human serum albumin [3]) [nM],Kd (human serum albumin [4]) [nM],% max occupancy [5] [%],IC50 [5] [nM],Kd (human serum albumin [6]) [nM],Kd (human serum albumin [7]) [nM],Binder
5.58,6.25,50.6,–,–,–,–,–,–,"Alb23 D57A (VHH, VHH alone) VHH: EVQLLESGGGLVQPGGSLRLSCAASGFTFRSFGMSWVRQAPGKGPEWVSSISGSGSATLYADSVKGRFTISRDNSKNTLYLQMNSLRPEDTAVYYCTIGGSLSRSSQGTLVTVSS"
3.97,5.84,39.5,–,–,–,–,–,–,"Alb23 G66A (VHH, VHH alone) VHH: EVQLLESGGGLVQPGGSLRLSCAASGFTFRSFGMSWVRQAPGKGPEWVSSISGSGSDTLYADSVKARFTISRDNSKNTLYLQMNSLRPEDTAVYYCTIGGSLSRSSQGTLVTVSS"
5.36,3.18,52.3,–,–,–,–,–,–,"Alb23 K65A (VHH, VHH alone) VHH: EVQLLESGGGLVQPGGSLRLSCAASGFTFRSFGMSWVRQAPGKGPEWVSSISGSGSDTLYADSVAGRFTISRDNSKNTLYLQMNSLRPEDTAVYYCTIGGSLSRSSQGTLVTVSS"
4.28,4.58,42.2,–,–,–,–,–,–,"Alb23 Y60A (VHH, VHH alone) VHH: EVQLLESGGGLVQPGGSLRLSCAASGFTFRSFGMSWVRQAPGKGPEWVSSISGSGSDTLAADSVKGRFTISRDNSKNTLYLQMNSLRPEDTAVYYCTIGGSLSRSSQGTLVTVSS"
2.33,2.6,19,–,–,–,–,–,–,"Alb23 S50A (VHH, VHH alone) VHH: EVQLLESGGGLVQPGGSLRLSCAASGFTFRSFGMSWVRQAPGKGPEWVSAISGSGSDTLYADSVKGRFTISRDNSKNTLYLQMNSLRPEDTAVYYCTIGGSLSRSSQGTLVTVSS"
3.07,3.48,36.5,–,–,–,–,–,–,"Alb23 D62A (VHH, VHH alone) VHH: EVQLLESGGGLVQPGGSLRLSCAASGFTFRSFGMSWVRQAPGKGPEWVSSISGSGSDTLYAASVKGRFTISRDNSKNTLYLQMNSLRPEDTAVYYCTIGGSLSRSSQGTLVTVSS"
3.33,3.65,37.7,–,–,–,–,–,–,"Alb23 S56A (VHH, VHH alone) VHH: EVQLLESGGGLVQPGGSLRLSCAASGFTFRSFGMSWVRQAPGKGPEWVSSISGSGADTLYADSVKGRFTISRDNSKNTLYLQMNSLRPEDTAVYYCTIGGSLSRSSQGTLVTVSS"
3.85,4.2,38.2,–,–,–,–,–,–,"Alb23 S103A (VHH, VHH alone) VHH: EVQLLESGGGLVQPGGSLRLSCAASGFTFRSFGMSWVRQAPGKGPEWVSSISGSGSDTLYADSVKGRFTISRDNSKNTLYLQMNSLRPEDTAVYYCTIGGSLARSSQGTLVTVSS"
5.17,5.53,42.3,–,–,–,–,–,–,"Alb23 I51A (VHH, VHH alone) VHH: EVQLLESGGGLVQPGGSLRLSCAASGFTFRSFGMSWVRQAPGKGPEWVSSASGSGSDTLYADSVKGRFTISRDNSKNTLYLQMNSLRPEDTAVYYCTIGGSLSRSSQGTLVTVSS"
2.81,3.13,25.6,–,–,–,–,–,–,"Alb23 S54A (VHH, VHH alone) VHH: EVQLLESGGGLVQPGGSLRLSCAASGFTFRSFGMSWVRQAPGKGPEWVSSISGAGSDTLYADSVKGRFTISRDNSKNTLYLQMNSLRPEDTAVYYCTIGGSLSRSSQGTLVTVSS"
3.36,3.74,29.3,–,–,–,–,–,–,"Alb23 S31A (VHH, VHH alone) VHH: EVQLLESGGGLVQPGGSLRLSCAASGFTFRAFGMSWVRQAPGKGPEWVSSISGSGSDTLYADSVKGRFTISRDNSKNTLYLQMNSLRPEDTAVYYCTIGGSLSRSSQGTLVTVSS"
4.58,4.92,49.7,–,–,–,–,–,–,"Alb23 R104A (VHH, VHH alone) VHH: EVQLLESGGGLVQPGGSLRLSCAASGFTFRSFGMSWVRQAPGKGPEWVSSISGSGSDTLYADSVKGRFTISRDNSKNTLYLQMNSLRPEDTAVYYCTIGGSLSASSQGTLVTVSS"
2.9,4.11,31.9,–,–,–,–,–,–,"Alb23 V64A (VHH, VHH alone) VHH: EVQLLESGGGLVQPGGSLRLSCAASGFTFRSFGMSWVRQAPGKGPEWVSSISGSGSDTLYADSAKGRFTISRDNSKNTLYLQMNSLRPEDTAVYYCTIGGSLSRSSQGTLVTVSS"
5.97,6.83,57.1,–,–,–,–,–,–,"Alb23 T58A (VHH, VHH alone) VHH: EVQLLESGGGLVQPGGSLRLSCAASGFTFRSFGMSWVRQAPGKGPEWVSSISGSGSDALYADSVKGRFTISRDNSKNTLYLQMNSLRPEDTAVYYCTIGGSLSRSSQGTLVTVSS"
4.95,5.24,37.6,–,–,–,–,–,–,"Alb23 S35A (VHH, VHH alone) VHH: EVQLLESGGGLVQPGGSLRLSCAASGFTFRSFGMAWVRQAPGKGPEWVSSISGSGSDTLYADSVKGRFTISRDNSKNTLYLQMNSLRPEDTAVYYCTIGGSLSRSSQGTLVTVSS"
–,–,–,32.7,16.6,67.4,5.2,–,–,"OA-Fc-ABDEG-Alb23 (Fc fusion, also called one-armed Fc-ABDEG-Alb23; OA-Fc-ABDEG-Alb23 (parental)) DKTHTCPPCPAPELLGGPSVFLFPPKPKDTLYITREPEVTCVVVDVSHEDPEVKFNWYVDGVEVHNAKTKPREEQYNSTYRVVSVLTVLHQDWLNGKEYKCKVSNKALPAPIEKTISKAKGQPREPQVYTLPPSRDELTKNQVSLWCLVKGFYPSDIAVEWESNGQPENNYKTTPPVLDSDGSFFLYSKLTVDKSRWQQGNVFSCSVMHEALKFHYTQKSLSLSPGGGGGSGGGGSGGGGSGGGGSEVQLLESGGGLVQPGGSLRLSCAASGFTFRSFGMSWVRQAPGKGPEWVSSISGSGSDTLYADSVKGRFTISRDNSKNTLYLQMNSLRPEDTAVYYCTIGGSLSRSSQGTLVTVSS Fc: DKTHTCPPCPAPELLGGPSVFLFPPKPKDTLYITREPEVTCVVVDVSHEDPEVKFNWYVDGVEVHNAKTKPREEQYNSTYRVVSVLTVLHQDWLNGKEYKCKVSNKALPAPIEKTISKAKGQPREPQVYTLPPSRDELTKNQVSLSCAVKGFYPSDIAVEWESNGQPENNYKTTPPVLDSDGSFFLVSKLTVDKSRWQQGNVFSCSVMHEALKFHYTQKSLSLSPG"
–,–,–,145,124,–,–,150,863,OA-Fc-ABDEG-Alb23-G33A (Fc fusion) DKTHTCPPCPAPELLGGPSVFLFPPKPKDTLYITREPEVTCVVVDVSHEDPEVKFNWYVDGVEVHNAKTKPREEQYNSTYRVVSVLTVLHQDWLNGKEYKCKVSNKALPAPIEKTISKAKGQPREPQVYTLPPSRDELTKNQVSLWCLVKGFYPSDIAVEWESNGQPENNYKTTPPVLDSDGSFFLYSKLTVDKSRWQQGNVFSCSVMHEALKFHYTQKSLSLSPGGGGGSGGGGSGGGGSGGGGSEVQLLESGGGLVQPGGSLRLSCAASGFTFRSFAMSWVRQAPGKGPEWVSSISGSGSDTLYADSVKGRFTISRDNSKNTLYLQMNSLRPEDTAVYYCTIGGSLSRSSQGTLVTVSS Fc: DKTHTCPPCPAPELLGGPSVFLFPPKPKDTLYITREPEVTCVVVDVSHEDPEVKFNWYVDGVEVHNAKTKPREEQYNSTYRVVSVLTVLHQDWLNGKEYKCKVSNKALPAPIEKTISKAKGQPREPQVYTLPPSRDELTKNQVSLSCAVKGFYPSDIAVEWESNGQPENNYKTTPPVLDSDGSFFLVSKLTVDKSRWQQGNVFSCSVMHEALKFHYTQKSLSLSPG
–,–,–,135,90.2,–,–,499,767,OA-Fc-ABDEG-Alb23-G33A/G53A (Fc fusion) DKTHTCPPCPAPELLGGPSVFLFPPKPKDTLYITREPEVTCVVVDVSHEDPEVKFNWYVDGVEVHNAKTKPREEQYNSTYRVVSVLTVLHQDWLNGKEYKCKVSNKALPAPIEKTISKAKGQPREPQVYTLPPSRDELTKNQVSLWCLVKGFYPSDIAVEWESNGQPENNYKTTPPVLDSDGSFFLYSKLTVDKSRWQQGNVFSCSVMHEALKFHYTQKSLSLSPGGGGGSGGGGSGGGGSGGGGSEVQLLESGGGLVQPGGSLRLSCAASGFTFRSFAMSWVRQAPGKGPEWVSSISASGSDTLYADSVKGRFTISRDNSKNTLYLQMNSLRPEDTAVYYCTIGGSLSRSSQGTLVTVSS Fc: DKTHTCPPCPAPELLGGPSVFLFPPKPKDTLYITREPEVTCVVVDVSHEDPEVKFNWYVDGVEVHNAKTKPREEQYNSTYRVVSVLTVLHQDWLNGKEYKCKVSNKALPAPIEKTISKAKGQPREPQVYTLPPSRDELTKNQVSLSCAVKGFYPSDIAVEWESNGQPENNYKTTPPVLDSDGSFFLVSKLTVDKSRWQQGNVFSCSVMHEALKFHYTQKSLSLSPG

# Source: patent US20260152573A1 (ARGENX, published 2026)
